# Assay results as given in US20210332123A1 (SUZHOU KANOVA BIOPHARMACEUTICAL, published 2021).
# Residue numbers refer to the chain shown, from its start.
# T1: human IL-17D (human, UniProt Q8TAD2 18-202, limits assumed)
# T1 sequence (looked up): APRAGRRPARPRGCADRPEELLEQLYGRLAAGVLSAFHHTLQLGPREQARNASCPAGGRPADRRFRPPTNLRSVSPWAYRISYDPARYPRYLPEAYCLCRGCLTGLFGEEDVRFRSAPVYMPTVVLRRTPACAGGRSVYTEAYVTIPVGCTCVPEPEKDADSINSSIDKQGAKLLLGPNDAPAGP
# T2: human IL-17F (human, UniProt Q96PD4 31-163)
# T2 sequence (looked up): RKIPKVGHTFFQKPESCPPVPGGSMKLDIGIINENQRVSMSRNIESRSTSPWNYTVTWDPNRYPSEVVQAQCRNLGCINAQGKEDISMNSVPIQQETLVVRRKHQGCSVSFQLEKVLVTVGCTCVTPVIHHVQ
# T3: human IL-17A (human, UniProt Q16552 24-155, limits assumed)
# T3 sequence (looked up): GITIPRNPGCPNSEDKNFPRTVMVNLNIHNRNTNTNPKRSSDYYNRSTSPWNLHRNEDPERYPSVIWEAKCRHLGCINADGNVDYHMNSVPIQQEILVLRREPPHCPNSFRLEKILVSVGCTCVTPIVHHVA
# T4: human IL-17B (human, UniProt Q9UHF5 21-180)
# T4 sequence (looked up): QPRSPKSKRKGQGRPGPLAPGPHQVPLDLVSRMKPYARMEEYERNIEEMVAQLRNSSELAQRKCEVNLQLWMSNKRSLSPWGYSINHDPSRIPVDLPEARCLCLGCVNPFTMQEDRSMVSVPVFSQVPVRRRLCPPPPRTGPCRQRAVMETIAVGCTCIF
# T5: human IL-17C (human, UniProt Q9P0M4 19-197)
# T5 sequence (looked up): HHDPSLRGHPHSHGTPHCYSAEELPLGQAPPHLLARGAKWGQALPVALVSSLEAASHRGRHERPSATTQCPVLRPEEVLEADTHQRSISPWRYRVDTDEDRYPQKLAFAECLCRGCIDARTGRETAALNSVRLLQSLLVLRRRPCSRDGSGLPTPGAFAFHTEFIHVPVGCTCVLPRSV
# T6: human IL-25 (human, UniProt Q9H293 33-177)
# T6 construct: ELISA used bought R&D systems #1258-IL-025/CF; Treated as one molecule; also called IL-17E; human IL-17E
# T6 sequence (looked up): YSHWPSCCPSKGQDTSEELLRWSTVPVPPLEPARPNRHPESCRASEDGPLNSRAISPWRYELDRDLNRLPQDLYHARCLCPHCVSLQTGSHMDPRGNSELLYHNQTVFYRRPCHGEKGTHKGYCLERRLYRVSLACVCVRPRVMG
# B1: VH1-1 + VL2-1 (humanized anti-IL-25 antibody formed by VH1-1 and VL2-1) (antibody, V domains shown)
# VH: QVTLKESGPTLVKPTQTLTLTCTFSGFSLSTSGMGLGWIRQPPGKALEWLAHIWWDDVKHYKPALKSRLTITKDTSKNQVVLTMTNVDPVDTATYYCARMGQLHYYGYDYAMDYWGQGTLVTVSS
# VL: DIQLTQSPSFLSASVGDRVTITCSASSSVSYMYWYQQKPGKAPKPLIYRTSNLASGVPSRFSGSGSGTEYTLTISSMQPEDFATYYCQLYHSYPPTWTFGQGTKLEIK
# B2: VH2-1 + VL1-2 (humanized anti-IL-25 antibody formed by VH2-1 and VL1-2) (antibody, V domains shown)
# VH: B1 VH with K5R, T10A, V12L, T72S, M84I
# VL: EIVLTQSPATLSASPGERVTISCSASSSVSYMYWYQQKPGQAPRPLIYRTSNLASGVPARFSGSGSGTDYTLTISSMEPEDFATYYCQLYHSYPPTWTFGQGTKLEIK
# B3: VH1-1 + VL1-2 (humanized anti-IL-25 antibody formed by VH1-1 and VL1-2) (antibody, V domains shown)
# VH: B1 VH
# VL: B2 VL
# notes: Captured by anti-human Fc gamma antibody in SPR
# B4: VH2-1 + VL2-1 (humanized anti-IL-25 antibody formed by VH2-1 and VL2-1) (antibody, V domains shown)
# VH: B1 VH with K5R, T10A, V12L, T72S, M84I
# VL: B1 VL
# B5: murine anti-IL-25 monoclonal antibody 18H3 (antibody, V domains shown)
# VH: QVTLKESGPGILQPSQTLSLTCSFSGFSLSTSGMGLGWIRQPSGKGLEWLAHIWWDDVKHYKPALKSRLTISKDISSSQVFLTIASVDTADTATYYCARMGQLHYYGYDYAMDYWGQGTSVTVSS
# VL: QIVLTQSPAIMSASPGEKVTISCSASSSVSYMYWYQQKPGSSPKPWIYRTSNLASGVPARFSGSGSGTSYSLTISSMEAEDAATYYCQLYHSYPPTWTFGGGTKLEIK
# notes: also called parental antibody; parental murine mAb
# Target: T1, human IL-17D
# Assay: ELISA, plate coated with 2 µg/ml cytokine
# Description: (§1) MaxiSorp 96-well plates (NUNC #449824, www.thermofisher.com) were coated with 2 μg/ml human IL-17A (Cell Signaling #89285F, www.cellsignal.com), human IL-17F (Cell Signaling #8906LC, www.cellsignal.com), human IL-17B (Peprotech #200-28, www.peprotech.com), human IL-17C (R&D systems #1234-IL-025/CF, www.rndsystems.com), human IL-17D ((Peprotech #200-27, www.peprotech.com), human IL-17E (R&D systems #1258-IL-025/CF, www.rndsystems.com) in 1×PBS (50 μl/well) respectively. Plates were incubated at 4° C. overnight. Coating solution was removed and plates were washed once with 200 μl/well PBST (1×PBS with 0.05% tween-20). Then 200 μl/well blocking buffer (1×PBS with 0.05% tween-20, 3% BSA) was added and incubated at room temperature for 1 hour. Blocking buffer was removed and plates were washed three times with 200 μl/well PBST (1×PBS with 0.05% tween-20). The anti-IL-25 antibodies (produced in Example 2), were diluted to 10, 3.33, 1.11, 0.37, 0.123, 0.041, 0.0137, 0.0046, 0.0015, 0.00031, 0.000102, 0.000034 μg/ml by 1×PBS and added to the plates (50 μl/well). Plates were incubated at room temperature for 2 hours. Antibodies in the wells were removed and plates were washed three times with 200 μl/well PBST (1×PBS with 0.05% tween-20) each time. Goat anti-human IgG(H&L)-HRP secondary antibody (Jackson Immuno Research #109-035-088, www.jacksonimmuno.com) was diluted 1:5000 in 1×PBS and added to each well (50 μl/well). Plates were incubated at room temperature for 1 hour. Secondary antibody was removed and plates were washed seven times with 200 μl/well PBST (1×PBS with 0.05% tween-20) each time. 50 μl/well TMB (eBioscience #85-00-4201-56, www.ebioscience.com) was added and plates were incubated at room temperature for several minutes. Then 50 μl/well 2N H₂SO₄ was added to stop the reaction. Plates were read at 450 nm.
row,binding result,Binder
1,no binding (tested: 10 µg/ml),B1
2,no binding (tested: 10 µg/ml),B2
3,no binding (tested: 10 µg/ml),B3
4,no binding (tested: 10 µg/ml),B4

# Target: T2, human IL-17F
# Assay: ELISA, plate coated with 2 µg/ml cytokine
# Description: as §1
row,binding result,Binder
1,no binding (tested: 10 µg/ml),B1
2,no binding (tested: 10 µg/ml),B2
3,no binding (tested: 10 µg/ml),B3
4,no binding (tested: 10 µg/ml),B4

# Target: T3, human IL-17A
# Assay: ELISA, plate coated with 2 µg/ml cytokine
# Description: as §1
row,binding result,Binder
1,no binding (tested: 10 µg/ml),B1
2,no binding (tested: 10 µg/ml),B2
3,no binding (tested: 10 µg/ml),B3
4,no binding (tested: 10 µg/ml),B4

# Target: T4, human IL-17B
# Assay: ELISA, plate coated with 2 µg/ml cytokine
# Description: as §1
row,binding result,Binder
1,no binding (tested: 10 µg/ml),B1
2,no binding (tested: 10 µg/ml),B2
3,no binding (tested: 10 µg/ml),B3
4,no binding (tested: 10 µg/ml),B4

# Target: T5, human IL-17C
# Assay: ELISA, plate coated with 2 µg/ml cytokine
# Description: as §1
row,binding result,Binder
1,no binding (tested: 10 µg/ml),B1
2,no binding (tested: 10 µg/ml),B2
3,no binding (tested: 10 µg/ml),B3
4,no binding (tested: 10 µg/ml),B4

# Target: T6, human IL-25
# Assay: ELISA, plate coated with human IL-25 (hIl25-HIS), OD450, Example 4; unit from the axis lg(nM) and paragraph 95
# Description: MaxiSorp 96-well plates (NUNC #449824, www.thermofisher.com) were coated with 2 μg/ml human IL-25 (R&D systems #1258-IL-025/CF) in 1×PBS (50 μl/well). Plates were incubated at 4° C. overnight. Coating solution was removed and plates were washed once with 200 μl/well PBST (1×PBS with 0.05% tween-20). Then 200 μl/well blocking buffer (1×PBS with 0.05% tween-20, 3% BSA) were added and incubated at room temperature for 1 hour. Blocking buffer was removed and plates were washed three times with 200 μl/well PBST (1×PBS with 0.05% tween-20). Anti-IL-25 antibodies (produced in Example 2) were diluted to 10, 3.33, 1.11, 0.37, 0.123, 0.041, 0.0137, 0.0046, 0.0015, 0.00031, 0.000102, 0.000034 μg/ml by 1×PBS and added to plates (50 μl/well). Plates were incubated at room temperature for 2 hours. Antibodies in the wells were removed and plates were washed three times with 200 μl/well PBST (1×PBS with 0.05% tween-20). Goat anti-human IgG (H&L)-HRP secondary antibody (Jackson Immuno Research #109-035-088, www.jacksonimmuno.com) was diluted 1:5000 in 1×PBS and added to each well (50 μl/well). Plates were incubated at room temperature for 1 hour. Secondary antibody was removed and plates were washed seven times with 200 μl/well PBST (1×PBS with 0.05% tween-20) each time. 50 μl/well TMB (eBioscience #85-00-4201-56, www.ebioscience.com) was added and plates were incubated at room temperature for several minutes. Then 50 μl/well 2N H₂SO₄ was added to stop the reaction. Optical density was measured at 450 nm in relation to human IL-25 binding.
row,EC50 [nM],Binder
1,0.154,B1
2,0.196,B2
3,0.252,B3
4,0.187,B4
5,0.187,B5
